This data set concerns the molecule itself. The experiment in a line: cross-linking.

B1: Ebola virus nucleoprotein (NP), wild type, expressed for DSP cross-linking (natural protein)
chain: MDSRPQKIWMAPSLTESDMDYHKILTAGLSVQQGIVRQRVIPVYQVNNLEEICQLIIQAFEAGVDFQESADSFLLMLCLHHAYQGDYKLFLESGAVKYLEGHGFRFEVKKRDGVKRLEELLPAVSSGKNIKRTLAAMPEEETTEANAGQFLSFASLFLPKLVVGEKACLEKVQRQIQVHAEQGLIQYPTAWQSVGHMMVIFRLMRTNFLIKFLLIHQGMHMVAGHDANDAVISNSVAQARFSGLLIVKTVLDHILQKTERGVRLHPLARTAKVKNEVNSFKAALSSLAKHGEYAPFARLLNLSGVNNLEHGLFPQLSAIALGVATAHGSTLAGVNVGEQYQQLREAATEAEKQLQQYAESRELDHLGLDDQEKKILMNFHQKKNEISFQQTNAMVTLRKERLAKLTEAITAASLPKTSGHYDDDDDIPFPGPINDDDNPGHQDDDPTDSQDTTIPDVVVDPDDGSYGEYQSYSENGMNAPDDLVLFDLDEDDEDTKPVPNRSTKGGQQKNSQKGQHIEGRQTQSRPIQNVPGPHRTIHHASAPLTDNDRRNEPSGSTSPRMLTPINEEADPLDDADDETSSLPPLESDDEEQDRDGTSNRTPTVAPPAPVYRDHSEKKELPQDEQQDQDHTQEARNQDSDNTQSEHSFEEMYRHILRSQGPFDAVLYYHMMKDEPVVFSTSDGKEYTYPDSLEEEYPPWLTEKEAMNEENRFVTLDGQQFYWPVMNHKNKFMAILQHHQ
With B1, the “stoichiometry N” value came to 2.

As usually defined, the stoichiometry N is a count of units in the complex or per binding partner.

Values taken from paper PMC12152876 (The Journal of Biological Chemistry, 2025).
